{"source": "patent US20240124607A1", "about": "(Merck Sharp & Dohme, published 2024)", "test_in_all_cases": "SPR, 37C, pH 7.4; reference E398", "key": {"Human CEACAM5 (E398)": {"molecular_target": "T1, Human CEACAM5 (E398) (human, UniProt P06731 35-685, limits assumed)", "T1 construct": "also called hCEACAM5", "T1 sequence": "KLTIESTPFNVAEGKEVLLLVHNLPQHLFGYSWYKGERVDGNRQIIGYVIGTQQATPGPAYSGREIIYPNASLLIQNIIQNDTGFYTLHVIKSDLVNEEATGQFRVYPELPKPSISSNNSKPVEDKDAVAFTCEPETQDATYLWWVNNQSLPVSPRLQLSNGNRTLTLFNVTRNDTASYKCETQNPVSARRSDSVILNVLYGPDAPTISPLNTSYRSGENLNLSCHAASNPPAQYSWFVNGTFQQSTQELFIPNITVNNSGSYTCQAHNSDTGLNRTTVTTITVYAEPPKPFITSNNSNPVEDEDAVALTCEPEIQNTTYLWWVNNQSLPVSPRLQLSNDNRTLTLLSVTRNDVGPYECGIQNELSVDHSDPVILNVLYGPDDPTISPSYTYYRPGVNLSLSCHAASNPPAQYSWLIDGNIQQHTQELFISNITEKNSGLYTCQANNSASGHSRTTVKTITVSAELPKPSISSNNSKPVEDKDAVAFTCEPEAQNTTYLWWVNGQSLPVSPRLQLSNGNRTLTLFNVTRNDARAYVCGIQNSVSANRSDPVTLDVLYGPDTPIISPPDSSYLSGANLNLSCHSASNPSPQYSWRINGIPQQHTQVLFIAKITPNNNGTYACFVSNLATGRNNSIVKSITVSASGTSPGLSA"}, "Human CEACAM5 (K398)": {"molecular_target": "T2, Human CEACAM5 (K398) (human, UniProt P06731 35-685, limits assumed)", "T2 construct": "also called K398 allele", "T2 sequence": "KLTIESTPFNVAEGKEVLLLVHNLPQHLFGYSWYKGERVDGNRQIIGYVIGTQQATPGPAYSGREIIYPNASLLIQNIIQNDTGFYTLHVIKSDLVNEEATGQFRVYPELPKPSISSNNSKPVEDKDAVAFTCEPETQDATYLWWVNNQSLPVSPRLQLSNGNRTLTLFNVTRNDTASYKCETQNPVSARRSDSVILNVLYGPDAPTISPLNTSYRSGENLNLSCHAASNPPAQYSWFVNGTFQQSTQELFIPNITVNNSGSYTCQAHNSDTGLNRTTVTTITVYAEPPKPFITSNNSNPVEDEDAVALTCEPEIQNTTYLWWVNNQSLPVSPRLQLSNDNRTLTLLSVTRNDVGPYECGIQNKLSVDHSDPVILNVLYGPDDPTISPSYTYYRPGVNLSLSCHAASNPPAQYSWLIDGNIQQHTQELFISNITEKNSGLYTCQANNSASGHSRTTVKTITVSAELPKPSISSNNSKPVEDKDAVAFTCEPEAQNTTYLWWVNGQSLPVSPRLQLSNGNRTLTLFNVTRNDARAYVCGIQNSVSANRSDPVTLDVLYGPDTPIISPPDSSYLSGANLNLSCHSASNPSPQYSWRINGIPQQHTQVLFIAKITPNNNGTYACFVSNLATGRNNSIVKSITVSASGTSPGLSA"}, "Human CEACAM5 V83A": {"molecular_target": "T3, Human CEACAM5 V83A (human, UniProt P06731 35-685, limits assumed)", "T3 sequence": "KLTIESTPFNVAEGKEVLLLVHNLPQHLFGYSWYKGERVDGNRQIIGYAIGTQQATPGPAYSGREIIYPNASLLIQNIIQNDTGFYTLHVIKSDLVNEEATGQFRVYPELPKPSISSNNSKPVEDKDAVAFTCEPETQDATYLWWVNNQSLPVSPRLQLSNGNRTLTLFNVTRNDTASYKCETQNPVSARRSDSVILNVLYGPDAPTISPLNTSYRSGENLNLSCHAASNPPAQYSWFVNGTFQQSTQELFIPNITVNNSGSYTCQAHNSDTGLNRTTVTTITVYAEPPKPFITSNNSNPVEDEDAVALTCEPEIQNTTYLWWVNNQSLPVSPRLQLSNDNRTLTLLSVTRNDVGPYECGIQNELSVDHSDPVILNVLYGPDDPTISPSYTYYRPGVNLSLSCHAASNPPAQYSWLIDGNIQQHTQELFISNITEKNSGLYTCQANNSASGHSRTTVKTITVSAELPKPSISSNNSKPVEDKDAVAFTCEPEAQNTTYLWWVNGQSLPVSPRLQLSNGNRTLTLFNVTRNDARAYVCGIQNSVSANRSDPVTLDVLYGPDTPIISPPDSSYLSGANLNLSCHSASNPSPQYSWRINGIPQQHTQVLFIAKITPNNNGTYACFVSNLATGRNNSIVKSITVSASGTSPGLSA"}, "Human CEACAM5 I113T": {"molecular_target": "T4, Human CEACAM5 I113T (human, UniProt P06731 35-685, limits assumed)", "T4 sequence": "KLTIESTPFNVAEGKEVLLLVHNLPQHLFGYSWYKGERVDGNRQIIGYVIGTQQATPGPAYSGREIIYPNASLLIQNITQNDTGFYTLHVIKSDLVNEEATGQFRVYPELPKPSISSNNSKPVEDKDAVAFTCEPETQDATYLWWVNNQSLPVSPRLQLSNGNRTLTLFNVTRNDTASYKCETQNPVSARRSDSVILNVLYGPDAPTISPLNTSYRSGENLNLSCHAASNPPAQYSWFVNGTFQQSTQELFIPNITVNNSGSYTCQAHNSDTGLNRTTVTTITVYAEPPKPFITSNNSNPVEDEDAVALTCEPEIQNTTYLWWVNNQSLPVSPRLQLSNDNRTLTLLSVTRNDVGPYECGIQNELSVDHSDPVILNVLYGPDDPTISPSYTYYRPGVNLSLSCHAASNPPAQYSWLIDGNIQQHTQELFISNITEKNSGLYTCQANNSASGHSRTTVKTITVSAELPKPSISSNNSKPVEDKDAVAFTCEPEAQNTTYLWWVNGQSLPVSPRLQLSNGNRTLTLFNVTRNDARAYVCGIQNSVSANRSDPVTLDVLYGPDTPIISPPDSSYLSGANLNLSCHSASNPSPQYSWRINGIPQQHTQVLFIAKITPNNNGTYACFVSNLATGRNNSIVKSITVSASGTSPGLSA"}}}
{"binder": "AB0466 F3' CEACAM5 TriNKET (bispecific antibody, human IgG1, kappa) not shown heavy: EVQLVESGGGLVKPGGSLRLSCAASGFTFSSYSMNWVRQAPGKGLEWVSSISSSSSYIYYADSVKGRFTISRDNAKNSLYLQMNSLRAEDTAVYYCARGAPIGAAAGWFDPWGQGTLVTVSSASTKGPSVFPLAPSSKSTSGGTAALGCLVKDYFPEPVTVSWNSGALTSGVHTFPAVLQSSGLYSLSSVVTVPSSSLGTQTYICNVNHKPSNTKVDKKVEPKSCDKTHTCPPCPAPELLGGPSVFLFPPKPKDTLMISRTPEVTCVVVDVSHEDPEVKFNWYVDGVEVHNAKTKPREEQYNSTYRVVSVLTVLHQDWLNGKEYKCKVSNKALPAPIEKTISKAKGQPREPQVCTLPPSRDELTENQVSLTCLVKGFYPSDIAVEWESNGQPENNYKTTPPVLDSDGSFFLYSWLTVDKSRWQQGNVFSCSVMHEALHNHYTQKSLSLSPG light: DIQMTQSPSSVSASVGDRVTITCRASQGISSWLAWYQQKPGKAPKLLIYAASSLQSGVPSRFSGSGSGTDFTLTISSLQPEDFATYYCQQGVSFPRTFGGGTKVEIKRTVAAPSVFIFPPSDEQLKSGTASVVCLLNNFYPREAKVQWKVDNALQSGNSQESVTEQDSKDSTYSLSSTLTLSKADYEKHKVYACEVTHQGLSSPVTKSFNRGEC", "values": [{"measurement": "KD/KD(Ref)", "setting": "Human CEACAM5 (E398)", "value": 1, "unit": "fold"}, {"measurement": "KD/KD(Ref)", "setting": "Human CEACAM5 (K398)", "value": 0.9, "unit": "fold"}, {"measurement": "KD/KD(Ref)", "setting": "Human CEACAM5 V83A", "value": 9.3, "unit": "fold"}, {"measurement": "KD/KD(Ref)", "setting": "Human CEACAM5 I113T", "value": 1.2, "unit": "fold"}]}
{"binder": "AB0411 F3' CEACAM5 TriNKET (bispecific antibody, human IgG1, kappa) DIQLTQSPATLSVSPGERATLSCRASQSVSSSYLAWYQQKPGQAPRLLIYGASSRATGIPDRFSGSGSGTDFTLTISRLEPEDFAVYYCQQYNNWPLTFGCGTKVEIKGGGGSGGGGSGGGGSGGGGSQVQLVQSGGGLVQPGGSLRLSCAASGFTFTSYAMSWVRQAPGKCLEWVSAISGTGDSTFYADSVKGRFTFSRDNSKNTLYLQMNSLRAEDTAVYYCAKDLGWLQYGLFDYWGQGTLVTVSSGSDKTHTCPPCPAPELLGGPSVFLFPPKPKDTLMISRTPEVTCVVVDVSHEDPEVKFNWYVDGVEVHNAKTKPREEQYNSTYRVVSVLTVLHQDWLNGKEYKCKVSNKALPAPIEKTISKAKGQPREPRVYTLPPCRDELTKNQVSLTCLVKGFYPSDIAVEWESNGQPENNYKTTPPVLVSDGSFTLYSKLTVDKSRWQQGNVFSCSVMHEALHNHYTQKSLSLSPG heavy: EVQLVESGGGLVKPGGSLRLSCAASGFTFSSYSMNWVRQAPGKGLEWVSSISSSSSYIYYADSVKGRFTISRDNAKNSLYLQMNSLRAEDTAVYYCARGAPIGAAAGWFDPWGQGTLVTVSSASTKGPSVFPLAPSSKSTSGGTAALGCLVKDYFPEPVTVSWNSGALTSGVHTFPAVLQSSGLYSLSSVVTVPSSSLGTQTYICNVNHKPSNTKVDKKVEPKSCDKTHTCPPCPAPELLGGPSVFLFPPKPKDTLMISRTPEVTCVVVDVSHEDPEVKFNWYVDGVEVHNAKTKPREEQYNSTYRVVSVLTVLHQDWLNGKEYKCKVSNKALPAPIEKTISKAKGQPREPQVCTLPPSRDELTENQVSLTCLVKGFYPSDIAVEWESNGQPENNYKTTPPVLDSDGSFFLYSWLTVDKSRWQQGNVFSCSVMHEALHNHYTQKSLSLSPG light: DIQMTQSPSSVSASVGDRVTITCRASQGISSWLAWYQQKPGKAPKLLIYAASSLQSGVPSRFSGSGSGTDFTLTISSLQPEDFATYYCQQGVSFPRTFGGGTKVEIKRTVAAPSVFIFPPSDEQLKSGTASVVCLLNNFYPREAKVQWKVDNALQSGNSQESVTEQDSKDSTYSLSSTLTLSKADYEKHKVYACEVTHQGLSSPVTKSFNRGEC", "values": [{"measurement": "KD/KD(Ref)", "setting": "Human CEACAM5 (E398)", "value": 1, "unit": "fold"}, {"measurement": "KD/KD(Ref)", "setting": "Human CEACAM5 (K398)", "value": 0.9, "unit": "fold"}, {"measurement": "KD/KD(Ref)", "setting": "Human CEACAM5 V83A", "value": 4.9, "unit": "fold"}, {"measurement": "KD/KD(Ref)", "setting": "Human CEACAM5 I113T", "value": 1.1, "unit": "fold"}]}
{"binder": "AB0621 F3' CEACAM5 TriNKET (bispecific antibody, human IgG1, kappa) DIVMTQSPDSLAVSLGERATINCKSSHSLLYGNFQNNYLAWYQQKPGQPPKLLIYWASTRESGVPDRFSGSGSGTDFTLTISSLQAEDVAVYYCQQYYSYPYTFGCGTKLEIKGGGGSGGGGSGGGGSGGGGSQVQLVQSGAEVKKPGASVKVSCKASGYTFTAYTIHWVRQAPGQCLEWMGYINPSSGYTEYNQKFKDRTTLTADTSISTAYMELSRLRSDDTAVYYCTREGGLLWFDYWGQGTLVTVSSGSDKTHTCPPCPAPELLGGPSVFLFPPKPKDTLMISRTPEVTCVVVDVSHEDPEVKFNWYVDGVEVHNAKTKPREEQYNSTYRVVSVLTVLHQDWLNGKEYKCKVSNKALPAPIEKTISKAKGQPREPRVYTLPPCRDELTKNQVSLTCLVKGFYPSDIAVEWESNGQPENNYKTTPPVLVSDGSFTLYSKLTVDKSRWQQGNVFSCSVMHEALHNHYTQKSLSLSPG heavy: EVQLVESGGGLVKPGGSLRLSCAASGFTFSSYSMNWVRQAPGKGLEWVSSISSSSSYIYYADSVKGRFTISRDNAKNSLYLQMNSLRAEDTAVYYCARGAPIGAAAGWFDPWGQGTLVTVSSASTKGPSVFPLAPSSKSTSGGTAALGCLVKDYFPEPVTVSWNSGALTSGVHTFPAVLQSSGLYSLSSVVTVPSSSLGTQTYICNVNHKPSNTKVDKKVEPKSCDKTHTCPPCPAPELLGGPSVFLFPPKPKDTLMISRTPEVTCVVVDVSHEDPEVKFNWYVDGVEVHNAKTKPREEQYNSTYRVVSVLTVLHQDWLNGKEYKCKVSNKALPAPIEKTISKAKGQPREPQVCTLPPSRDELTENQVSLTCLVKGFYPSDIAVEWESNGQPENNYKTTPPVLDSDGSFFLYSWLTVDKSRWQQGNVFSCSVMHEALHNHYTQKSLSLSPG light: DIQMTQSPSSVSASVGDRVTITCRASQGISSWLAWYQQKPGKAPKLLIYAASSLQSGVPSRFSGSGSGTDFTLTISSLQPEDFATYYCQQGVSFPRTFGGGTKVEIKRTVAAPSVFIFPPSDEQLKSGTASVVCLLNNFYPREAKVQWKVDNALQSGNSQESVTEQDSKDSTYSLSSTLTLSKADYEKHKVYACEVTHQGLSSPVTKSFNRGEC", "values": [{"measurement": "KD/KD(Ref)", "setting": "Human CEACAM5 (E398)", "value": 1, "unit": "fold"}, {"measurement": "KD/KD(Ref)", "setting": "Human CEACAM5 (K398)", "value": 1.1, "unit": "fold"}, {"measurement": "KD/KD(Ref)", "setting": "Human CEACAM5 V83A", "value": 2, "unit": "fold"}, {"measurement": "KD/KD(Ref)", "setting": "Human CEACAM5 I113T", "value": 1.7, "unit": "fold"}]}
